# In US20160287713A1 (CALIFORNIA INSTITUTE FOR BIOMEDICAL RESEARCH, published 2016):
# Changes are numbered by the printed parent chain. Numbers in names are those of the source. Where no end group is shown, it is not given here. The star is where a group is joined. FA1 = tetradecanamide (myristoyl) lipid attached through an ethoxy-ethoxy-ethyl acetamide linker, made from Br-FA1, N-(2-(2-(2-(2-bromoacetamido)ethoxy)ethoxy)ethyl)tetradecanamide, CCCCCCCCCCCCCC(=O)NCCOCCOCCNC(=O)C*; FA2 = not defined here; FA3 = not defined here
# T1: LGR7 (UniProt Q9HBX9 1-757, limits assumed)
# T1 sequence (looked up): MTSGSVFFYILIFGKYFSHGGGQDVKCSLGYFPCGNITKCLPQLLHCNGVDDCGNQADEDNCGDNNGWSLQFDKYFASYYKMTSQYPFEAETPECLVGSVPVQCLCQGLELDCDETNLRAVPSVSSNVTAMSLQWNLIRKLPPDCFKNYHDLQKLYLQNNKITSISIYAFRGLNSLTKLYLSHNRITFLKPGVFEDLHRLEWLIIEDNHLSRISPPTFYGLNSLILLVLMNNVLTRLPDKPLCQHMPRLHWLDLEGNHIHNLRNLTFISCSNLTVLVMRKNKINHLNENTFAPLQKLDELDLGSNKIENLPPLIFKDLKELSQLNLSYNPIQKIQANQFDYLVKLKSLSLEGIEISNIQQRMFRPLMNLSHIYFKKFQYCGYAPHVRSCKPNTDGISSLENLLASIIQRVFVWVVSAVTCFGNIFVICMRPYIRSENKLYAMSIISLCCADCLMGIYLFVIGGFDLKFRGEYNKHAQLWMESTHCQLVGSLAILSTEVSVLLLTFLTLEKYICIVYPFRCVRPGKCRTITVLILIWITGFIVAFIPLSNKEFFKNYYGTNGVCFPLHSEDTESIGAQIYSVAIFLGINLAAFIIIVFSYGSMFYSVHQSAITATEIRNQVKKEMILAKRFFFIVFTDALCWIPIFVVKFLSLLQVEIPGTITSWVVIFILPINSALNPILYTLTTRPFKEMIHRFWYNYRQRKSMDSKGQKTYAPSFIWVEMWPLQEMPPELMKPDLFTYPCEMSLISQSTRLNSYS
# B1: Relaxin-B-D1A, A-Q1C-FA2 (ligand)
# chain 1: ASWMEEVIKLCGRELVRAQIAICGMSTWS
# chain 2: C(FA2)LYSALANKCCHVGCTKRSLARFC
# modifications: ends and bridges not checked; also: A and B chains disulfide-linked, pairing not given here
# B2: Relaxin-B-D1A, A-Q1C-FA3 (ligand)
# chain 1: ASWMEEVIKLCGRELVRAQIAICGMSTWS
# chain 2: C(FA3)LYSALANKCCHVGCTKRSLARFC
# modifications: ends and bridges not checked; also: A and B chains disulfide-linked, pairing not given here
# B3: Relaxin-B-D1A, A-A5C-FA2 (ligand)
# chain 1: ASWMEEVIKLCGRELVRAQIAICGMSTWS
# chain 2: QLYSC(FA2)LANKCCHVGCTKRSLARFC
# modifications: ends and bridges not checked; also: A and B chains disulfide-linked, pairing not given here
# B4: Relaxin-B-D1A, A-A5C-FA3 (ligand)
# chain 1: ASWMEEVIKLCGRELVRAQIAICGMSTWS
# chain 2: QLYSC(FA3)LANKCCHVGCTKRSLARFC
# modifications: ends and bridges not checked; also: A and B chains disulfide-linked, pairing not given here
# B5: Relaxin-B-D1A, A-R18C-FA1 (ligand)
# chain 1: ASWMEEVIKLCGRELVRAQIAICGMSTWS
# chain 2: QLYSALANKCCHVGCTKC(FA1)SLARFC
# modifications: ends and bridges not checked; also: A and B chains disulfide-linked, pairing not given here
# B6: Relaxin-B-D1A, A-R18C-FA2 (ligand)
# chain 1: ASWMEEVIKLCGRELVRAQIAICGMSTWS
# chain 2: QLYSALANKCCHVGCTKC(FA2)SLARFC
# modifications: ends and bridges not checked; also: A and B chains disulfide-linked, pairing not given here
# B7: Relaxin-B-D1A, A-R18C-FA3 (ligand)
# chain 1: ASWMEEVIKLCGRELVRAQIAICGMSTWS
# chain 2: QLYSALANKCCHVGCTKC(FA3)SLARFC
# modifications: ends and bridges not checked; also: A and B chains disulfide-linked, pairing not given here
# B8: Relaxin-B-D1AM25KM4K, A-Q1AH12K, B-S29C-FA1 (ligand)
# chain 1: ASWKEEVIKLCGRELVRAQIAICGKSTWC(FA1)
# chain 2: ALYSALANKCCKVGCTKRSLARFC
# modifications: ends and bridges not checked; also: A and B chains disulfide-linked, pairing not given here
# B9: Pro-Relaxin-B-D1A (ligand)
# chain: MIEEGRDSWMEEVIKLCGRELVRAQIAICGMSTWSKRKPTGYGSRKKRQLYSALANKCCHVGCTKRSLARFC
# B10: Relaxin-B-D1AM25KM4K, A-Q1AH12K, B-S29C-FA2 (ligand)
# chain 1: ASWKEEVIKLCGRELVRAQIAICGKSTWC(FA2)
# chain 2: ALYSALANKCCKVGCTKRSLARFC
# modifications: ends and bridges not checked; also: A and B chains disulfide-linked, pairing not given here
# B11: Relaxin-B-D1AM25KM4K, A-Q1AH12K, B-S29C-FA3 (ligand)
# chain 1: ASWKEEVIKLCGRELVRAQIAICGKSTWC(FA3)
# chain 2: ALYSALANKCCKVGCTKRSLARFC
# modifications: ends and bridges not checked; also: A and B chains disulfide-linked, pairing not given here
# B12: Relaxin-B-D1AM25KS29C-FA2 (ligand)
# chain 1: ASWMEEVIKLCGRELVRAQIAICGKSTWC
# chain 2: QLYSALANKCCHVGCTKRSLARFC
# modifications: ends and bridges not checked; also: lipid conjugate FA2, site not given here
# B13: Relaxin-B-D1AM4KS29C-FA2 (ligand)
# chain 1: ASWKEEVIKLCGRELVRAQIAICGMSTWC
# chain 2: QLYSALANKCCHVGCTKRSLARFC
# modifications: ends and bridges not checked; also: lipid conjugate FA2, site not given here
# B14: Relaxin-A-H12K, B-D1AS29C-FA2 (ligand)
# chain 1: ASWMEEVIKLCGRELVRAQIAICGMSTWC(FA2)
# chain 2: QLYSALANKCCKVGCTKRSLARFC
# modifications: ends and bridges not checked; also: A and B chains disulfide-linked, pairing not given here
# B15: Relaxin-B-D1AS29C-XTEN288 (ligand)
# chain 1: ASWMEEVIKLCGRELVRAQIAICGMSTWC
# chain 2: QLYSALANKCCHVGCTKRSLARFC
# chain 3: SAGSPTGPGSEPATSGSETPGTSESATPESGPGSEPATSGSETPGTSESATPESGPGTSTEPSEGSAPGSPAGSPTSTEEGTSESATPESGPGSEPATSGSETPGTSESATPESGPGSPAGSPTSTEEGSPAGSPTSTEEGTSTEPSEGSAPGTSESATPESGPGTSESATPESGPGTSESATPESGPGSEPATSGSETPGSEPATSGSETPGSPAGSPTSTEEGTSTEPSEGSAPGTSTEPSEGSAPGSEPATSGSETPGTSESATPESGPGTSTEPSEGSAPSASR
# B16: Relaxin-B-D1A (ligand)
# chain 1: ASWMEEVIKLCGRELVRAQIAICGMSTWS
# chain 2: QLYSALANKCCHVGCTKRSLARFC
# modifications: ends and bridges not checked; cysteine pairing not given here
# B17: Relaxin-B-D1A, A-Q1C-FA1 (ligand)
# chain 1: ASWMEEVIKLCGRELVRAQIAICGMSTWS
# chain 2: C(FA1)LYSALANKCCHVGCTKRSLARFC
# modifications: ends and bridges not checked; also: A and B chains disulfide-linked, pairing not given here
# B18: Tev-Relaxin-single-chain (ligand)
# chain: HHHHHHHHENLYFQGSGGDSWMEEVIKLCGRELVRAQIAICGMSTWSGGGRGGRQLYSALANKCCHVGCTKRSLARFC
# B19: GSGG-Relaxin-single-chain (ligand)
# chain: GSGGDSWMEEVIKLCGRELVRAQIAICGMSTWSGGGRGGRQLYSALANKCCHVGCTKRSLARFC
# B20: Tev-Relaxin-B-S29C-single-chain (ligand)
# chain: B18 chain with S47C
# B21: Tev-Relaxin-B-S29C-FA1-single-chain (ligand)
# chain: B18 chain with S47C
# modifications: lipid FA1 on the Cys at B-chain position 29 (from Br-FA1, Example 5)
# B22: Tev-Relaxin-C chain (ligand)
# chain: HHHHHHHHENLYFQGSGGDSWMEEVIKLCGRELVRAQIAICGMSTWSKRSLSQEDAPQTPRPVAEIVPSFINKDTETINMMSEFVANLPQELKLTLSEMQPALPQLQQHVPVLKDSSLLFEEFKKLIRNRQSEAADSSPSELKYLGLDTHSRKKRQLYSALANKCCHVGCTKRSLARFC
# B23: Tev-Relaxin (ligand)
# chain 1: HHHHHHHHENLYFQSGGDSWMEEVIKLCGRELVRAQIAICGMSTWS
# chain 2: QLYSALANKCCHVGCTKRSLARFC
# B24: Tev-Relaxin-B-S29C-FA1-C-Chain (ligand)
# chain: B22 chain with S47C
# modifications: lipid FA1 on the Cys at B-chain position 29 (from Br-FA1, Example 5)
# Target: T1, LGR7
# Assay: cell-based or functional assay
row,Binder,"Activity, fold drop compared to relaxin [fold]"
1,B1,15
2,B2,25
3,B3,25
4,B4,15
5,B5,15
6,B6,30
7,B7,30
8,B8,25
9,B9,10
10,B10,150
11,B11,150
12,B12,48
13,B13,40
14,B14,16
15,B15,20
16,B16,0
17,B17,10

# Target: T1, LGR7
# Assay: cell-based or functional assay
# Remark: another data set of the same source
row,Binder,Activity [nM]
1,B18,14
2,B19,1
3,B20,11
4,B21,29
5,B22,6
6,B23,2
7,B24,21
